The experiment concerns the target BE-eRNP adenine base editor: bipartite NLS, TadA (ABE8.20-m variant), 32-amino acid glycine/serine-rich linker, S. pyogenes nCas9 (D10A, C80A), bipartite NLS, complexed with sgRNA (Escherichia coli | Streptococcus pyogenes). The experiment can be described thus: not stated; oligomeric state of the purified eRNPs (protein combined with sgRNA); the method stands only in Supp Figures 1-3.

By stoichiometry N is commonly meant the number of molecules, sites or subunits per partner or assembly.

With “BE-eRNP adenine base editor: bipartite NLS, TadA (ABE8.20-m variant), 32-amino acid glycine/serine-rich linker, S. pyogenes nCas9 (D10A, C80A), bipartite NLS, complexed with sgRNA (enzyme)”, the stoichiometry N amounted to 2.

Source of the values: paper doi:10.1101/2024.12.30.630799.
